Test results from patent US20150067898.

Test system: ssAPC14.2 TALEN right monomer (Xanthomonas TALE-FokI (artificial)?)
Assay: cell_activity
Details: pair with p5; repeat 50%; pig fibroblasts

Sequence: ACAGAAATTCTGGGT (double strand) [APC14.2 right half-site]
- activity: 48 % HDR day 3
